Biological target: T1, lexA-bicoid (UniProt P09081 2-160)
T1 construct: also called nonspecific bait; not shown: LexA part of the two-hybrid bait
T1 sequence (looked up): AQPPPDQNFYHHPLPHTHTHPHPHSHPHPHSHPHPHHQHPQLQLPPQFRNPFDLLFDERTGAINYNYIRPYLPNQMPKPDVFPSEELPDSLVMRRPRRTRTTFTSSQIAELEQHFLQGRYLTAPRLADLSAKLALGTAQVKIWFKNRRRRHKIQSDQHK
Experiment: yeast two-hybrid (interaction trap), retransformation with control bait
Source text: The human minor vault protein p193 amino acid sequence and the nucleotide sequence encoding human minor vault protein p193 were elucidated as follows. First, human vault protein p193 was cloned using an interaction trap, two-hybrid system according to techniques known to those with skill in the art. See, for example, Golemis, et al., *Current Protocols in Mol. Biol.* 20.1.1–20.35 John Willey & Sons, 1997, incorporated by reference in its entirety. In summary, rat major vault protein, GenBank accession number U09870, having the 67 amino acids at the amino-terminal truncated was used as bait against a HeLa acid fusion cDNA library obtained from Roger Brent, Boston, Mass., USA to search for proteins that interacted with rat major vault protein. The interacting proteins were identified by their ability to give rise to blue colonies on media containing galactose and X-gal, a color indicator substrate. The specificity of the interaction between the identified proteins and the rat major vault protein was verified by retransformation of the identified proteins with specific, rat major vault protein and nonspecific (lexA-bicoid) bait cDNAs. This technique identified the cDNA encoding the 193 kDa minor vault protein, SEQ ID NO: 1, by its interaction with the rat major vault protein.

- binding result: no binding
B1: human minor vault protein p193 (other)
chain: VCTQHWQDAVPWTELLSLQTEDGFWKLTPELGLILNLNTNGLHSFLKQKGIQSLGVKGRECLLDLIATMLVLQFIRTRLEKEGIVFKSLMKMDDPSISRNIPWAFEAIKQASEWVRRTEGQYPSICPRLELGNDWDSATKQLLGLQPISTVSPLHRVLHYSQG
notes: In the two-hybrid screen, p193 was a clone from a HeLa acid fusion cDNA library; In the western blots, immunofluorescence and immunoprecipitation, the form of p193 is not described; also called 193 kDa minor vault protein; human vault protein p193
